# Data reported in article PMC5823874.
# pKd: −log10 of the molar value.
# Experiments:
# [1] = target: Calcium-independent phospholipase A2β, short variant (SH-iPLA2β, 752 amino acids), wild type (Chinese hamster (gene cloned from CHO cells))
# [2] = target: FAM-labeled calmodulin T34C (UniProt P0DP23); assay: fluorescence polarisation; fluorescence anisotropy; 30 nM FAM-CaM with Ca2+, titrated with a twofold dilution series of iPLA2β; 25 mM HEPES 7.5, 150 mM NaCl, 10% glycerol; 15 min at 25 °C
# [3] = target: Calcium-independent phospholipase A2β, short variant (SH-iPLA2β, 752 amino acids), wild type (Chinese hamster (gene cloned from CHO cells)); assay: AUC; sedimentation velocity, 20 °C, 35,000 rpm, absorbance at 280 nm; 25 mM HEPES 7.5, 500 mM NaCl, 10% glycerol; c(s) model in SEDFIT
Ki of inhibition of iPLA2β enzymatic activity by CaM in the presence of Ca2+ (fluorogenic assay with Pyrene-PC liposomes) [1] [nM],pKd [2],stoichiometry N [3],Substance
23,,,"Calmodulin (CaM), unmodified (from UniProt P0DP23 1-149) (natural protein)"
,< 5.85,,iPLA2β W695E mutant (enzyme)
,6.95,2,"Calcium-independent phospholipase A2β, short variant (SH-iPLA2β, 752 amino acids), wild type (enzyme)"
